Molecular target: the molecule itself
Assay: fluorescence correlation spectroscopy (FCS); soluble supernatant of transfected Neuro2a cell lysate (50 mM Hepes-KOH pH 7.5, 150 mM NaCl, 1% Nonidet P-40); counts per particle (CPP) against GFP monomers as read-out of homo-oligomerisation, diffusion time as read-out of size

B1: GFP-tagged TDP-43 carboxy-terminal fragment 233-414 (C233) (domain or fragment, human, UniProt Q13148 233-414, looked up)
chain: TFADDQIAQSLCGEDLIIKGISVHISNAEPKHNSNRQLERSGRFGGNPGGFGNQGGFGNSRGGGAGLGNNQGSNMGGGMNFGAFSINPAMMAAAQAALQSSWGMMGMLASQQNQSGPSGNNQNQGNMQREPNQAFGSGNNSYSGSNSGAAIGWGSASNAGSGSGFNGGFGSSMDSKSSGWGM
notes: Cloned into pmeGFP-C1 (HindIII/BamHI); also called G-C233; GFP-C233; source: Neuro2a, transfected, in lysate; not shown: GFP (monomeric enhanced GFP, A206K), N-terminal, kept
  counts per particle (CPP) relative to GFP monomers: ~4 fold
